The text below walks through data of US20180155413A1 (AstraZeneca / MedImmune, published 2018).

Common to all, as to test: cell-based or functional assay
The target in experiment [1] is HA of ca B/Ann Arbor/1/66 (influenza B virus).
Experiment [2] addresses HA of B/New Jersey/01/2012 (victoria) (influenza B virus).
Experiment [3] addresses HA of B/Yamagata/16/88 (yamagata) (influenza B virus).
The target in experiment [4] is HA of A/Hong Kong/2212/2010 (H1N1) (influenza A virus).
Experiment [5] has as its target HA of ca B/Beijing/243/97 (victoria) (influenza B virus).
Experiment [6] concerns the target HA of B/Wisconsin/5/2013 (victoria) (influenza B virus).
Experiment [7] deals with HA of B/Nevada/3/2011 (victoria) (influenza B virus).
The target in experiment [8] is HA of B/Malaysia/2506/2004 (victoria) (influenza B virus).
Experiment [9] has as its target HA of B/Phuket/3073/2013 (yamagata) (influenza B virus).
The target in experiment [10] is HA of B/Texas/2/2013 (victoria) (influenza B virus).

B1: GL20/39 BiS4 100/44 (bispecific antibody)
light: DIQMTQSPSSLSASVGDRVTITCRTSQSLSSYTHWYQQKPGKAPKLLIYAASSRGSGVPSRFSGSGSGTDFTLTISSLQPEDFATYYCQQSRTFGQGTKVEIKRTVAAPSVFIFPPSDEQLKSGTASVVCLLNNFYPREAKVQWKVDNALQSGNSQESVTEQDSKDSTYSLSSTLTLSKADYEKHKVYACEVTHQGLSSPVTKSFNRGEC
heavy: not shown
Regarding B1, the “Neutralization (IC50)” value turned out to be 12.8 nM in experiment [1]; 23 nM in experiment [2]; 1.3 nM in [3]; 0.4 nM in experiment [4]; 25.9 nM in experiment [5]; 14.5 nM in experiment [6]. For the same molecule, the “Neutralization (IC50)” value in [7] turned out to be 38.2 nM; in [8], 33 nM; in [9] it was 15.4 nM; in [10], 13.8 nM.
